In US20010016194A1 (priority 1999, published 2001):

B1: FLAG-HMK-IL-2Rβ chain mutant A-: FLAG-HMK-IL-2Rβ chain mutant lacking the acidic domain (protein)
chain: NCRNTGPWLKKVLKCNTPDPSKFFSQLSSEHGGDVQKWLSSPFPSSSFSPGGLAPEISPLEVLERDKVTQLLLQPLSGEDDAYCTFPSRDDLLLFSPSLLGGPSPPSTAPGGSGAGEERMPPSLQERVPRDWDPQPLGPPTPGVPDLVDFQPPPELVLREAGEEVPDAGPREGVSFPWSRPPGQGEFRALNARLPLNTDAYLSLQELQGQDPTHLV
modifications: left off: small tags and cut ends
notes: FLAG-HMK-IL-2Rβ chain mutant lacking the acidic domain
B2: FLAG-HMK-IL-2Rβ chain WT: bacterially produced fusion protein: FLAG epitope, HMK site and wild type IL-2Rβ chain cytoplasmic domain (protein)
chain: NCRNTGPWLKKVLKCNTPDPSKFFSQLSSEHGGDVQKWLSSPFPSSSFSPGGLAPEISPLEVLERDKVTQLLLQQDKVPEPASLSSNHSLTSCFTNQGYFFFHLPDALEIEACQVYFTYDPYSEEDPDEGVAGAPTGSSPQPLQPLSGEDDAYCTFPSRDDLLLFSPSLLGGPSPPSTAPGGSGAGEERMPPSLQERVPRDWDPQPLGPPTPGVPDLVDFQPPPELVLREAGEEVPDAGPREGVSFPWSRPPGQGEFRALNARLPLNTDAYLSLQELQGQDPTHLV
modifications: left off: small tags and cut ends
B3: mutant A^−CT^−: FLAG-HMK-IL-2Rβ chain mutant lacking both acidic domain and proline rich C-terminal (protein)
chain: NCRNTGPWLKKVLKCNTPDPSKFFSQLSSEHGGDVQKWLSSPFPSSSFSPGGLAPEISPLEVLERDKVTQLLL
modifications: left off: small tags and cut ends
notes: FLAG-HMK-IL-2Rβ chain mutant lacking both acidic domain and proline rich C-terminal
B4: FLAG-HMK-IL-2Rβ chain CT^+: FLAG-HMK-IL-2Rβ chain containing only the proline rich C-terminal (protein)
chain: QPLSGEDDAYCTFPSRDDLLLFSPSLLGGPSPPSTAPGGSGAGEERMPPSLQERVPRDWDPQPLGPPTPGVPDLVDFQPPPELVLREAGEEVPDAGPREGVSFPWSRPPGQGEFRALNARLPLNTDAYLSLQELQGQDPTHLV
modifications: left off: small tags and cut ends
notes: FLAG-HMK-IL-2Rβ chain containing only the proline rich C-terminal

What was measured:
(His)6-Raf-1 [1] = target: T1, (His)6-Raf-1 (Homo sapiens, UniProt P04049); experiment: Totally cell-free system: binding of bacterially produced (His)6-Raf-1 to FLAG-HMK-IL-2Rβ chain fusion proteins, anti-Raf-1 immunoblot; conditions: for amount of Raf-1 proteins bound, % of the positive control value (Raf-1 binding to FLAG-HMK-IL-2Rβ chain WT): estimated using Hewlett Packard ScanJet
T1 construct: made in house; host or cells: M15 bacteria (E. coli), pQE-30
Experimental: For the construction of the (His)6-Raf-1 expression plasmid, PCR was performed using the […] cDNA as template and oligonucleotide primers designed to facilitate cloning into the pQE-30 plasmid according to the manufacturer's protocol (QIAGEN, QIAexpressionist; Chatsworth, CA). (His)6-Raf-1 protein was produced in M15 bacteria by IPTG induction, and purified on Ni-NTA resin (QIAGEN). Affinity purification yielded a 72-74 kD protein which was recognized by anti Raf-1 antibody.
Accordingly, in this totally cell-free assay, FLAG-HMK-IL-2Rβ chain wild type and deletion mutants lacking at least one of several defined domains of the IL-2Rβ chain (see Example 1) were used to identify the IL-2Rβ chain domain involved in Raf-1 binding. Assay conditions were similar to those described in Example 1. Briefly, bacterially produced proteins: FLAG-HMK-IL-2Rβ chain wild type (WT), FLAG-HMK-IL-2Rβ chain containing only proline rich C-terminal (CT^+), FLAG-HMK-IL-2Rβ chain mutants lacking:serine rich region (S^−), acidic domain (A^−), acidic domain and proline rich C-terminal (A^−CT^−) were incubated with bacterially produced (His)6-Raf-1 (for all constructs see FIG. 1) followed by adsorption of FLAG-HMK-IL-2Rβ chain/Raf-1 complexes on anti-FLAG affinity beads. After extensive washing, IL-2Rβ chain/Raf-1 complexes were competitively eluted from anti-FLAG beads using buffer containing FLAG peptide. Eluted proteins were separated on SDS-PAGE, transferred onto Immobilon membrane and blotted with anti-Raf-1 antibody.

[2] = tested on: T-cell derived, active serine/threonine kinase; experiment: Protein kinase reaction on anti-FLAG beads coated with FLAG-HMK-IL-2Rβ chain proteins and exposed to T-cell lysates; format: biochemical, human; conditions: for level of (His)6-Mek-1 kinase phosphorylation: kinase defective (His)6-Mek-1 as substrate; for serine/threonine kinase activity, phosphorylation of p70 protein: no exogenously added substrate
From the text: FLAG-HMK-IL-2Rβ chain wild type and deletional mutants lacking certain defined domains of the IL-2Rβ chain (see Examples 1 and 2 and FIG. 1) were used to identify IL-2Rβ chain domain involved in binding T-cell derived, active serine/threonine kinase. Assay conditions were similar to those noted above. […] FLAG-HMK- fusion proteins coated beads were further used as affinity reagents to absorb proteins present in T-cell lysates. T-cell derived proteins bound to FLAG-MHK fusion proteins were then tested for serine/threonine kinase activity in the absence or presence of exogenous substrates: Histone H-1 or (His),-Mek-1. Products of kinase reactions were boiled in SDS-PAGE sample buffer followed by separation on SDS-PAGE, transfer onto Immobilon membrane and autoradiography. The following are the experiments that were carried out and their results: […]

[3] = target: T2, Raf-1 proteins present in T-cell lysates (Homo sapiens, UniProt P04049); experiment: Cell-free system: binding of Raf-1 from T-cell lysates to FLAG-HMK-IL-2Rβ chain fusion proteins on anti-FLAG beads, anti-Raf-1 immunoblot; parameters: decrease of Raf-1 binding in comparison to WT control: unit not given here; conditions: T-cell lysates, anti-Raf-1 immunoblot; for binding of T-cell derived Raf-1 proteins: affinity beads coated with fusion protein
T2 construct: endogenous in cells; host or cells: PHA-stimulated human peripheral blood mononuclear cells (T cells), lysate
From the text: (ii) In order to study the interaction of IL-2Rβ chain with intracellular molecules, the FLAG-HMK-IL-2Rβ chain cytoplasmic domain fusion protein was purified from bacterial lysate using the M2 anti-FLAG monoclonal antibody in a standard affinity chromatography procedure. More specifically, bacterial lysate proteins were absorbed onto anti-FLAG (M2) affinity column (IBI-Kodak, New Haven, Conn., USA). After washing the column, the adsorbed proteins were eluted with either glycine buffer (pH 3) or FLAG peptide (10^−4M). Proteins in various fractions were analyzed for expected size (about 33 kDa) and purity after separation on SDS-PAGE and Commassie blue staining. The presence of a functional HMK recognition site was confirmed by phosphorylation of the purified 33 kDa IL-2Rβ chain fusion protein by HMK. More specifically, the eluted fusion proteins were tested for susceptibility to phosphorylation by incubation with the catalytic subunit of bovine heart muscle kinase (Sigma) (1 U/ul) in buffer containing 20 mM Tric-HCl, pH 7.5, 1 mM DTT, 100 mM NaCl, 10 mM MgCl2 and 1μCi [γ^32p] ATP for 30 min at 37° C. followed by SDS-PAGE and autoradiography. Purified FLAG-HMK-IL-2Rβ chain fusion proteins were used as an affinity reagent to probe for cytosolic proteins present in lysates of human T cells, metabolically labeled with [^35S ]-methionine, that bind to the IL-2Rβ chain. […] For [^35S]-methionine labeling, the cells were suspended at 4×10^7 cells/ml at 37° C. followed by addition of 0.5 mCi of [^35S]-methionine for 4 hours prior to lysis in Dounce homogenization buffer and application of the lysate to the affinity column. Several [^35S]-labeled proteins were retained by the FLAG-HMK-IL-2Rβ chain cytosolic domain fusion protein bound to the affinity column. One of these proteins was identified as Raf-1 by immunoblotting using a polyclonal antibody specific for the SP-63 peptide which corresponds to the C-terminal fragment of Raf-1. A molar excess of the competing SP-63 peptide blocked binding of the anti-SP-63 antibody to Raf-1.
Using the basic cell-free system described above, a number of FLAG-HMK-IL-2Rβ chain wild type FLAG-HMK-IL2Rβ chain deletion mutant proteins were then studied with respect to this specific interaction with Raf-i proteins present in T-cell lysates. These FLAG-HMK-IL2Rβ chain wild type (WT) and deletion mutants lacking certain defined domains of the IL-2Rβ chain were used to identify the IL-2Rβ chain domain involved in Raf-1 binding. Assay conditions were similar to those described above. […] In FIG. 1, there is shown, schematically, all of the constructs, i.e., FLAG-HMK-IL-2Rβ chain fusion proteins produced in transformed bacterial cells and used in this study. These FLAG-HMK- fusion proteins-coated beads were then used as affinity reagents to absorb Raf-1 proteins present in T-cell lysates. T-cell derived proteins bound to FLAG-HMK fusion proteins were then eluted using buffer containing FLAG peptide, separated on SDS-PAGE, transferred onto Immobilon membrane and blotted with anti-Raf-1 antibody.
The absorbed proteins were washed, eluted with FLAG peptide and probed for the presence of Raf-1 and 14-3-3 proteins on immunoblots. […] Washed cells (about 4×10^7) were lysed in Dounce homogenization buffer, centrifuged (15×10^3 xg for 15 min.) and supernatants applied onto washed anti-FLAG (M2) affinity column (IBI-Kodak) coated with bacterial lysates interacted with one of the FLAG-HMK fusion proteins. […]

(His)6-Raf-1 [4] = target: T1, (His)6-Raf-1; experiment: Kinase activity toward Mek-1 after interaction of FLAG-HMK-IL-2Rβ chain with bacterially produced (His)6-Raf-1; format: biochemical; conditions: interaction with (His)6-Raf-1; enzymatically inactive (His)6-Mek-1 substrate
Experimental: Bacterial lysates containing FLAG-HMK-IL-2Rβ chain wild type and (His)6-Raf-1 proteins were used (see Example 2) to test the hypothesis that the IL-2Rβ chain induces catalytic activity of Raf-1. Assay conditions were similar to those described above. Briefly, bacterially produced proteins: FLAG-HMK-IL-2Rβ chain wild type (WT) or FLAG-HMK (negative control) (for all constructs see FIG. 1) were incubated with bacterial lysates containing either (His)6-Raf-1 or (His)6 (negative control) followed by the absorption of protein complexes on anti-FLAG affinity beads. […] Products of kinase reactions were boiled in SDS-PAGE sample buffer followed by separation on SDS-PAGE, transfer onto Immobilon membrane and autoradiography.

Molecule	amount of Raf-1 proteins bound, % of the positive control value (Raf-1 binding to FLAG-HMK-IL-2Rβ chain WT) ((His)6-Raf-1 [1])	level of (His)6-Mek-1 kinase phosphorylation [2]	serine/threonine kinase activity, phosphorylation of p70 protein [2]	decrease of Raf-1 binding in comparison to WT control [3]	induction of kinase activity toward Mek-1 kinase ((His)6-Raf-1 [4])	binding of Raf-1 proteins ((His)6-Raf-1 [1]; anti-Raf-1 immunoblot)	binding of T-cell derived Raf-1 proteins [3]
B1	17-50%	Background levels	no phosphorylated band p70	50-80	–	–	–
B2	–	increase	bind T-cell derived protein(s) expressing serine/threonine kinase activity	–	did not result in the induction of kinase activity	bind Raf-1 proteins equally well	bind T-cell derived Raf-1 proteins equally well
B3	0%	Background levels	no phosphorylated band p70	–	–	–	no binding
B4	0%-10%	Background levels	no phosphorylated band p70	–	–	–	no binding
